Assay results: the supplement of paper PMC7877785
± gives the uncertainty stated by the source.

Assay: self-splicing fitness, log relative to wild type (ln ratio); higher = more splicing; Tetrahymena group I intron in knt gene, E. coli kanamycin selection, DiMSum; sequences stand for … in CUCUCU…GGAGGGAAAAGUUAUCAGGCAUGCACCUGGUAGCUAGUCUUUAAACCAAUAGAUUGCAUCGGUUUAAAAGGCAAGACCGUCAAAUUGCGGGAAAGGGGUCAACAGCCGUUCAGUACCAAGUCUCAGGGGAAACUUUGAGAUGGCCUUGCAAAGGGUAUGGUAAUAAGCUGACGGACAUGGUCCUAACCACGCAGCCAAGUCCUAAGUCAACAGAUCUUCUGUUGAUAUGGAUGCAGUUCACAGACUAAAUGUCGGUCGGGGAAGAUGUAUUCUUCUCAUAAGAUAUAGUCGGACCUCUCCUUAAUGGGAGCUAGCGGAUGAAGUGAUGCAACACUGGAGCCGCUGGGAACUAAUUUGUAUGCGAAAGUAUAUUGAUUAGUUUUGGAGUACUCGUGGUCG
Procedure, shortened: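 Library with all eight P1ex-region intron nucleotides randomised, intron inside the knt kanamycin-resistance gene on pET-22b(+), in E. coli BL21(DE3). Cells grew overnight at 37°C or 30°C on LB agar with or without 25 μg/mL kanamycin (plus 100 μg/mL carbenicillin, 50 μM IPTG, 0.2% rhamnose), in six replicate transformations. Pooled colonies were amplicon-sequenced on Illumina HiSeq 2500. DiMSum fitness is the error-weighted combination of wild-type-normalised replicate fold changes, kanamycin versus none.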

| Sequence | self-splicing fitness (ln) (30 °C) | self-splicing fitness (ln) (37 °C) |
| --- | --- | --- |
| UCGUAGCAAUAUUACGACGU | -3.04 ± 0.28 | -1.58 ± 0.17 |
| UCGUAGCAAUAUUACGAGGC | -0.464 ± 0.44 |  |
| UCGUAGCAAUAUUACGAGUC | -3.23 ± 0.17 | -2.47 ± 0.17 |
| UCGUAGCAAUAUUACGAUCC | -2.46 ± 0.35 |  |
| UCGUAGCAAUAUUACGCGGA | -2.54 ± 0.17 | -1.4 ± 0.12 |
| UCGUAGCAAUAUUACGCUCC | -2.47 ± 0.25 |  |
| UCGUAGCAAUAUUACGCUGU |  | -1.67 ± 0.28 |
| UCGUAGCAAUAUUACGGAAG | -2.55 ± 0.29 | -1.94 ± 0.28 |
| UCGUAGCAAUAUUACGGGAC |  | -2.5 ± 0.44 |
| UCGUAGCAAUAUUACGGGAU | -4.41 ± 0.46 | -1.99 ± 0.31 |
| UCGUAGCAAUAUUACGGUCG | -1.69 ± 0.12 | 0.265 ± 0.13 |
| UCGUAGCAAUAUUACGGUCU | -2.83 ± 0.18 | -1.67 ± 0.16 |
| UCGUAGCAAUAUUACGUAAA | -2.09 ± 0.2 | -0.594 ± 0.17 |
| UCGUAGCAAUAUUACGUCUG | -0.251 ± 0.091 | -0.589 ± 0.12 |
| UCGUAGCAAUAUUACGUGCC | -3.73 ± 0.33 | -1.13 ± 0.25 |
| UCGUAGCAAUAUUACGUUCG | -1.45 ± 0.071 | -0.735 ± 0.086 |
| UCGUAGCAAUAUUACGUUCU | -1.6 ± 0.23 | -1.49 ± 0.24 |
| UCUAAGCAAUAUUACGAAGG | -2.53 ± 0.15 | -0.99 ± 0.16 |
| UCUAAGCAAUAUUACGAAUU | -3.75 ± 0.31 | -2.66 ± 0.25 |
| UCUAAGCAAUAUUACGACAU | -3.444 ± 0.025 | -2.23 ± 0.037 |
| UCUAAGCAAUAUUACGAGAU |  | -0.699 ± 0.22 |
| UCUAAGCAAUAUUACGAUGU | -0.365 ± 0.06 | -0.355 ± 0.074 |
| UCUAAGCAAUAUUACGCACU | -3.04 ± 0.24 | -1.52 ± 0.17 |
| UCUAAGCAAUAUUACGCAUC | -2.99 ± 0.13 | -3.33 ± 0.23 |
| UCUAAGCAAUAUUACGCUGC | -3.41 ± 0.19 | -2.84 ± 0.19 |

| Sequence | self-splicing fitness (ln) (30 °C) | self-splicing fitness (ln) (37 °C) |
| --- | --- | --- |
| UCUAAGCAAUAUUACGCUUG |  | -2.59 ± 0.41 |
| UCUAAGCAAUAUUACGGCAU | -3.46 ± 0.26 | -2.55 ± 0.21 |
| UCUAAGCAAUAUUACGGGCG | -1.54 ± 0.11 | -0.979 ± 0.095 |
| UCUAAGCAAUAUUACGGGGU | -2.9 ± 0.26 | -2.45 ± 0.21 |
| UCUAAGCAAUAUUACGGUGC | -2.58 ± 0.12 | -2.85 ± 0.2 |
| UCUAAGCAAUAUUACGGUUG | -2.82 ± 0.15 | -2.61 ± 0.18 |
| UCUAAGCAAUAUUACGUAAC | -4.19 ± 0.24 | -2.94 ± 0.24 |
| UCUAAGCAAUAUUACGUCUC |  | -3.38 ± 0.4 |
| UCUAAGCAAUAUUACGUUGA | -1.71 ± 0.089 | -1.29 ± 0.086 |
| UCUAAGCAAUAUUACGUUUU | -3.43 ± 0.19 | -3.06 ± 0.29 |
| UCUCAGCAAUAUUACGAACC | -1.84 ± 0.18 | -1.69 ± 0.28 |
| UCUCAGCAAUAUUACGACAC | -4.22 ± 0.26 | -3.33 ± 0.33 |
| UCUCAGCAAUAUUACGAUGU | -1.07 ± 0.09 | -0.224 ± 0.12 |
| UCUCAGCAAUAUUACGCAGU | -2.93 ± 0.16 | -1.96 ± 0.19 |
| UCUCAGCAAUAUUACGCGAU | -4.5 ± 0.34 | -2.1 ± 0.36 |
| UCUCAGCAAUAUUACGCGGA | -2.54 ± 0.37 | -2.46 ± 0.29 |
| UCUCAGCAAUAUUACGGAGG | -4.93 ± 0.29 | -1.97 ± 0.17 |
| UCUCAGCAAUAUUACGGCGU | -0.533 ± 0.087 | -0.636 ± 0.12 |
| UCUCAGCAAUAUUACGUAGG | -0.566 ± 0.053 | -0.133 ± 0.1 |
| UCUCAGCAAUAUUACGUCAG | -3.54 ± 0.25 | -3.16 ± 0.27 |
| UCUGAGCAAUAUUACGAAAU | -4.41 ± 0.46 | -2.24 ± 0.4 |
| UCUGAGCAAUAUUACGAAGA | -1.67 ± 0.21 | -0.838 ± 0.27 |
| UCUGAGCAAUAUUACGAUGU | -2.72 ± 0.15 | -0.718 ± 0.16 |
| UCUGAGCAAUAUUACGAUUG | -2.97 ± 0.27 | -2.39 ± 0.33 |
| UCUGAGCAAUAUUACGCACU | -4.18 ± 0.39 | -2.1 ± 0.28 |

| Sequence | self-splicing fitness (ln) (30 °C) | self-splicing fitness (ln) (37 °C) |
| --- | --- | --- |
| UCUGAGCAAUAUUACGCGAC |  | -2.85 ± 0.48 |
| UCUGAGCAAUAUUACGCGCG |  | -1.69 ± 0.46 |
| UCUGAGCAAUAUUACGCGUC |  | -2.49 ± 0.48 |
| UCUGAGCAAUAUUACGCUUA | -2.24 ± 0.26 | -2.38 ± 0.45 |
| UCUGAGCAAUAUUACGGGCA | -3.41 ± 0.33 | -2.49 ± 0.16 |
| UCUGAGCAAUAUUACGGGGG | -3.29 ± 0.36 | -2.49 ± 0.25 |
| UCUGAGCAAUAUUACGGUAG | -3.93 ± 0.33 | -1.67 ± 0.18 |
| UCUGAGCAAUAUUACGGUGG | -1.29 ± 0.084 | -0.277 ± 0.1 |
| UCUGAGCAAUAUUACGUCCA | -2.33 ± 0.3 | -1.68 ± 0.38 |
| UCUUAGCAAUAUUACGAACG | -0.815 ± 0.15 | -1 ± 0.2 |
| UCUUAGCAAUAUUACGAGCU | -3.09 ± 0.34 | -1.01 ± 0.26 |
| UCUUAGCAAUAUUACGAUCA | -1.3 ± 0.22 | -1.15 ± 0.23 |
| UCUUAGCAAUAUUACGCAUU | -4.23 ± 0.19 | -2.47 ± 0.16 |
| UCUUAGCAAUAUUACGCGCC | -3.51 ± 0.22 | -2.42 ± 0.22 |
| UCUUAGCAAUAUUACGCGCG | -3.05 ± 0.25 | -1.76 ± 0.17 |
| UCUUAGCAAUAUUACGCGGA |  | -2.03 ± 0.41 |
| UCUUAGCAAUAUUACGCGGG | -2.21 ± 0.22 | -2.5 ± 0.34 |
| UCUUAGCAAUAUUACGCUAA | -2.71 ± 0.35 |  |
| UCUUAGCAAUAUUACGCUGU | -3.65 ± 0.37 | -1.45 ± 0.26 |
| UCUUAGCAAUAUUACGGAUC |  | -1.69 ± 0.36 |
| UCUUAGCAAUAUUACGGGUC | -3.28 ± 0.32 | -2.68 ± 0.41 |
| UCUUAGCAAUAUUACGGUGC | -3.26 ± 0.33 | -1.9 ± 0.33 |
| UCUUAGCAAUAUUACGUCAU | -1.86 ± 0.32 |  |
| UCUUAGCAAUAUUACGUGAU | -2.43 ± 0.28 | -2.01 ± 0.38 |
| UCUUAGCAAUAUUACGUGUG | -2.13 ± 0.13 | -0.484 ± 0.099 |

| Sequence | self-splicing fitness (ln) (30 °C) | self-splicing fitness (ln) (37 °C) |
| --- | --- | --- |
| UGAAAGCAAUAUUACGAACA | -0.213 ± 0.064 | 0.349 ± 0.08 |
| UGAAAGCAAUAUUACGACAA | 0.219 ± 0.1 | -0.111 ± 0.13 |
| UGAAAGCAAUAUUACGACGG | -0.788 ± 0.1 | -0.64 ± 0.1 |
| UGAAAGCAAUAUUACGAGAG | -4.15 ± 0.33 | -1.61 ± 0.14 |
| UGAAAGCAAUAUUACGAUCC | -0.303 ± 0.14 | 0.92 ± 0.18 |
| UGAAAGCAAUAUUACGCCAA | -1.13 ± 0.15 | -0.806 ± 0.18 |
| UGAAAGCAAUAUUACGCUGG | -2.59 ± 0.16 | -1.27 ± 0.19 |
| UGAAAGCAAUAUUACGGAAU | -3.12 ± 0.18 | -0.0346 ± 0.15 |
| UGAAAGCAAUAUUACGGACG | -0.186 ± 0.084 | 0.54 ± 0.12 |
| UGAAAGCAAUAUUACGGAGU | -3.82 ± 0.28 | -2.84 ± 0.19 |
| UGAAAGCAAUAUUACGGAUA | -1.56 ± 0.13 | -1.1 ± 0.14 |
| UGAAAGCAAUAUUACGGCCU | -0.0439 ± 0.16 | 0.493 ± 0.18 |
| UGAAAGCAAUAUUACGGCGC | -1.78 ± 0.21 | -0.486 ± 0.23 |
| UGAAAGCAAUAUUACGGCGG | -1.03 ± 0.085 | -0.221 ± 0.14 |
| UGAAAGCAAUAUUACGGCUU | -1.62 ± 0.13 | -1.81 ± 0.2 |
| UGAAAGCAAUAUUACGGGCU | -2.04 ± 0.16 | -1.97 ± 0.27 |
| UGAAAGCAAUAUUACGGGGA | -1.92 ± 0.21 | -0.977 ± 0.19 |
| UGAAAGCAAUAUUACGGUCA | -0.166 ± 0.077 | 0.339 ± 0.1 |
| UGAAAGCAAUAUUACGUCCU | -0.649 ± 0.091 | -0.195 ± 0.081 |
| UGAAAGCAAUAUUACGUCGG | -1.12 ± 0.065 | -0.446 ± 0.082 |
| UGAAAGCAAUAUUACGUGUC | -0.712 ± 0.15 | -2.32 ± 0.21 |
| UGACAGCAAUAUUACGAAAA | -2.4 ± 0.35 | -1.29 ± 0.19 |
| UGACAGCAAUAUUACGAAUG | -0.535 ± 0.086 | -0.604 ± 0.1 |
| UGACAGCAAUAUUACGACAG | -0.934 ± 0.065 | 0.0335 ± 0.084 |
| UGACAGCAAUAUUACGACGU | -1.48 ± 0.099 | -0.473 ± 0.13 |
